Paper PMC2563799
Like-named read-outs stand apart in the source and are kept apart here.

Experiments:
Experiment in all cases: thiol-disulfide exchange
Ibα-TM (human) [1] = molecular target: Ibα-TM (human)
Ibα-TM (human) [2] = molecular target: Ibα-TM (human); remark: listed apart in the source
Ibα-TM (human) [3] = molecular target: Ibα-TM (human); remark: listed apart in the source
[4] = molecular target: (Ibβ-TM)-SS-(Ibα-TM)-SS-(Ibβ-TM) peptide complex (human)
[5] = molecular target: (Ibβ-TM)-SS-(Ibα-TM)-SS-(Ibβ-TM) peptide complex (human); remark: listed apart in the source
[6] = molecular target: (Ibβ-TM)-SS-(Ibα-TM)-SS-(Ibβ-TM) peptide complex (human); remark: listed apart in the source

B1: Ibβ-TM (peptide)
chain: GSGGGLCWGALAAQLALLGLGLLHALLLVLLLSRLRRLRARARARAAARLSLTDPLVAERAGTDES
B1 was tested, and the αβ2 production (% of Ibβ-TM) (Ibα-TM (human) [1]) was 20.5 % of Ibβ-TM, the αβ2 production (% of Ibβ-TM) (Ibα-TM (human) [2]) was 13.5 % of Ibβ-TM and the αβ2 production (% of Ibβ-TM) (Ibα-TM (human) [3]) was 27.7 % of Ibβ-TM.

B2: IX-TM (peptide)
chain: GSVRPGVLWDVALVAVAALGLALLAGLLNATTEALD
B2 was tested, and the αβ2 production with IX-TM (% of Ibβ-TM) [4] was 29.4 % of Ibβ-TM, the αβ2 production with IX-TM (% of Ibβ-TM) [5] was 41.2 % of Ibβ-TM and the αβ2 production with IX-TM (% of Ibβ-TM) [6] was 32.8 % of Ibβ-TM.
